Measured values as given in patent US12098186.

Biological target: SARS-CoV-2 receptor-binding domain (RBD) of the spike protein (SARS-CoV-2) (UniProt P0DTC2)

Bamlanivimab/ LY-CoV555 (antibody) was tested, and the Kd was 3.5 nM.
